According to patent US20250082753A1 (Hoffmann-La Roche, published 2025):

Molecular target: T1, CH2-CH3 AAA P329R CAR
T1 construct: Expressed on transduced primary human T cells (CD4+:CD8+ 1:1); also called CH2 CH3 AAA PR CAR
Test: flow cytometry double staining of CH2-CH3 AAA P329R CAR T cells with 50 nM anti-PG VH3xVL1 huIgG-AF647 and 100 nM anti-AAA x FolR1 1+1 TCB Avi Biotin + BV421 streptavidin
Experimental: In order to assess if the P329G mutation and AAA mutations can be bound by the respective molecules simultaneously, a second staining was performed as follows (FIG. 12A). The cells were incubated with LIVE/DEAD™ Fixable Near-IR Dead (Invitrogen, #L34976) dye (1:1000 in DPBS) and 50 nM of anti-PG VH3×VL1 huIgG-AF647 for 20 minutes at 4° C.
Then the cells were washed twice with FACS-buffer. In a second step the cells were incubated with 100 nM of anti-AAA×FolR1-Avi-Biotin 1+1 TCB and 500 nM Fc_P329LALA (20 minutes at 4° C.). Fc_P329GLALA served as blocking molecule, to prevent binding of the anti-PG VH3×VL1 huIgG-AF647 to the PG mutation in the anti-AAA×FolR1-Avi-Biotin 1+1 TCB. After the incubation, the cells were washed twice with FACS-buffer. In a third step the cells were resuspended in BV421 Streptavidin (Biolegend, #405225) and 500 nM Fc_P329LALA (20 min, 4° C.). After another two washing steps, the cells were fixed (BD CytoFix, #554655) and analyzed on the FACS.

T1 sequence (chain, as listed by the source P329R P329R limits assumed): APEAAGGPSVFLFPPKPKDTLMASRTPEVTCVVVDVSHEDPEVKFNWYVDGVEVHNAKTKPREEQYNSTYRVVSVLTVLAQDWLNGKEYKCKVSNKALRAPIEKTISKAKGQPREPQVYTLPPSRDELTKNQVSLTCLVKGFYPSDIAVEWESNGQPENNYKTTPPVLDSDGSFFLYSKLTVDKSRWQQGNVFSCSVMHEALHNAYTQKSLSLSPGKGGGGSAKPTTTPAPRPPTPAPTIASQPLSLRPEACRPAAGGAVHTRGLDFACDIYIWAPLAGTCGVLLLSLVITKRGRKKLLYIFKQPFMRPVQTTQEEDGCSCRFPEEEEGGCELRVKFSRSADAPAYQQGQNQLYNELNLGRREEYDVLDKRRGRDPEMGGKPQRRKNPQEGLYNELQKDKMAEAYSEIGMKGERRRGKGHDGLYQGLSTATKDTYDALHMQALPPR

binding result: no binding (tested: 50 nM)
B1: Anti-P329G (VH3VL1) huIgG1 (antibody, V domains shown)
VH: EVQLVESGGGLVQPGGSLRLSCAASGFTFSRYWMNWVRQAPGKGLEWVGEITPDSSTINYAPSLKGRFTISRDNAKNSLYLQMNSLRAEDTAVYYCARPYDYGAWFASWGQGTLVTVSS
VL: QAVVTQEPSLTVSPGGTVTLTCRSSTGAVTTSNYANWVQEKPDHLFTGLIGGTNKRAPGTPARFSGSLLGGKAALTLSGAQPEDEAEYYCALWYSNHWVFGGGTKLTVL
notes: huIgG1; also called P1AE9957; anti-P329G VH3×VL1 AF647 labeled IgG
